Results reported in US20210196796A1 (SYNTHEKINE, published 2021).
Substitutions are numbered along the chain they refer to.

T1: orthogonal hCD122 receptor (hoRb), hCD122 with H133D and Y134F (human, UniProt P14784 27-550)
T1 sequence: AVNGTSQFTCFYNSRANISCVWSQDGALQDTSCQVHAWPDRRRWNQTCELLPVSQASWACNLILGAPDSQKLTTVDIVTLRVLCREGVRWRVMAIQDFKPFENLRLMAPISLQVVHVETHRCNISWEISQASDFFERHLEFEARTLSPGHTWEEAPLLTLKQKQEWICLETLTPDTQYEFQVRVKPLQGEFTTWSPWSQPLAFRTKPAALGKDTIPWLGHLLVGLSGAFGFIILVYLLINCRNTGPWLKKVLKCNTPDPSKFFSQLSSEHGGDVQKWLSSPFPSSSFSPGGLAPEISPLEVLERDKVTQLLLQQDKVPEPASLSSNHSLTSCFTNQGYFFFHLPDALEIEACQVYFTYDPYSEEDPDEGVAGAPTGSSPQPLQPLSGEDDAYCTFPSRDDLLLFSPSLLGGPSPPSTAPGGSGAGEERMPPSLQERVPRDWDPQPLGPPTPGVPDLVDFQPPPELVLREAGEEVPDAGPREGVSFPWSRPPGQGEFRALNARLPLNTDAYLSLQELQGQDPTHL

B1: SQVLRA (ligand)
chain: APTSSSTKKTQLQLSQLLVLLRAILNGINNYKNPKLTRMLTFKFYMPKKATELKHLQCLEEELKPLEEVLNLAQSKNFHLRPRDLISNINVIVLELKGSETTFMCEYADETATIVEFLNRWITFCQSIISTLT
B2: SQVLKW (ligand)
chain: B1 chain with R22K, A23W
B3: SQVLKS (ligand)
chain: B1 chain with R22K, A23S
B4: SQVLKH (ligand)
chain: B1 chain with R22K, A23H
B5: SQVLKV (ligand)
chain: B1 chain with R22K, A23V
B6: SQVLDA (ligand)
chain: B1 chain with R22D
B7: SQVLKL (ligand)
chain: B1 chain with R22K, A23L
B8: SQVLTA (ligand)
chain: B1 chain with R22T
B9: SQVLKY (ligand)
chain: B1 chain with R22K, A23Y
B10: SQVLKF (ligand)
chain: B1 chain with R22K, A23F
B11: SQVLKQ (ligand)
chain: B1 chain with R22K, A23Q
B12: SQVLNA (ligand)
chain: B1 chain with R22N
B13: ΔM23, SQVLK- (ligand)
chain: APTSSSTKKTQLQLSQLLVLLKILNGINNYKNPKLTRMLTFKFYMPKKATELKHLQCLEEELKPLEEVLNLAQSKNFHLRPRDLISNINVIVLELKGSETTFMCEYADETATIVEFLNRWITFCQSIISTLT
B14: ΔQ13, SQVLKA (ligand)
chain: B13 chain with Q13L, L14S, S15Q, Q16L, L18V, V19L, L21K, K22A

The binders below were run against T1, orthogonal hCD122 receptor (hoRb), … (assay: cell-based or functional assay).
Throughout, for Relative Proliferation Fold Change 3F8 1:10: reference of the scale not given here.
Throughout, for Relative Proliferation Fold Change 3F8 1:2: reference of the scale not given here.
Throughout, for Relative Proliferation Fold Change 3F8 1:50: reference of the scale not given here.
Throughout, for Relative Proliferation Fold Change NKL 1:10: reference of the scale not given here.
Throughout, for Relative Proliferation Fold Change NKL 1:2: reference of the scale not given here.
Throughout, for Relative Proliferation Fold Change NKL 1:50: reference of the scale not given here.

NKL Ortho Proliferation Signal 1:2 | NKL Ortho Proliferation Signal 1:10 | NKL Ortho Proliferation Signal 1:50 | Relative Proliferation Fold Change NKL 1:2 [fold] | Relative Proliferation Fold Change NKL 1:10 [fold] | Relative Proliferation Fold Change NKL 1:50 [fold] | Binder
60800 | 68400 | 34300 | 4.33 | 4.06 | 2.28 | B1
52000 | 36000 | 17900 | 3.55 | 2.52 | 1.33 | B2
56200 | 59400 | 29000 | 4.79 | 3.99 | 2.11 | B3
44400 | 39200 | 18500 | 4 | 2.7 | 1.49 | B4
63400 | 66100 | 29900 | 4.61 | 4.15 | 2 | B5
35100 | 22700 | 11600 | 2.55 | 1.65 | 0.95 | B6
59700 | 67100 | 32700 | 4.69 | 4.38 | 2.26 | B7
26400 | 19400 | 7650 | 2.27 | 1.38 | 0.6 | B8
52400 | 43800 | 21900 | 3.51 | 2.64 | 1.38 | B9
65100 | 44700 | 23200 | 3.54 | 2.5 | 1.43 | B10
74300 | 82000 | 49600 | 4.43 | 4.61 | 3.05 | B11
50600 | 36500 | 17300 | 4.55 | 3 | 1.4 | B12
27600 | 19000 | 8950 | 2.87 | 1.43 | 0.73 | B13
26700 | 20700 | 11800 | 2.06 | 1.39 | 0.79 | B14

Target: T1, orthogonal hCD122 receptor (hoRb), …
Test: cell-based or functional assay
Remark: another data set of the same source

3F8 Ortho Proliferation Signal 1:2 [cts/min] | 3F8 Ortho Proliferation Signal 1:10 [cts/min] | 3F8 Ortho Proliferation Signal 1:50 [cts/min] | Relative Proliferation Fold Change 3F8 1:2 [fold] | Relative Proliferation Fold Change 3F8 1:10 [fold] | Relative Proliferation Fold Change 3F8 1:50 [fold] | Binder
33400 | 32300 | 19600 | 43 | 38.8 | 30.2 | B1
40800 | 32600 | 20500 | 36 | 24.7 | 34.3 | B2
43800 | 55500 | 26600 | 90.8 | 58.3 | 24.2 | B3
25700 | 17300 | 18700 | 39.9 | 14.6 | 13.7 | B4
45300 | 53000 | 21000 | 36.1 | 29.1 | 20.8 | B5
33400 | 32300 | 19600 | 43 | 38.8 | 30.2 | B6
40200 | 37000 | 8930 | 43 | 15.3 | 5.43 | B7
24100 | 15100 | 6550 | 0.46 | 10.9 | 5.95 | B8
39100 | 50600 | 24600 | 29.5 | 50 | 30.3 | B9
42100 | 48500 | 21000 | 42.8 | 48.8 | 17.4 | B10
45700 | 64000 | 33100 | 31.1 | 20 | 29.5 | B11
32600 | 35100 | 19100 | 80.2 | 56.4 | 25.8 | B12
6220 | 4410 | 2930 | 12.9 | 7.97 | 2.82 | B13
37600 | 26100 | 12400 | 102 | 23.7 | 7.63 | B14
